Data published in patent US20240317871A1 (IMMUNOMIC THERAPEUTICS, published 2024).

T1: human HVEM (human, UniProt Q92956 39-202, limits assumed)
T1 sequence (looked up): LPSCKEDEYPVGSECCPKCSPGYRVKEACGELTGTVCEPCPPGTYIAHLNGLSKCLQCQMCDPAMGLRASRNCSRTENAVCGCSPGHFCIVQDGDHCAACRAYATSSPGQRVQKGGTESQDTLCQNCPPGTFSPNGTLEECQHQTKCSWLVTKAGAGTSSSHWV

T2: murine HVEM (murine, UniProt Q80WM9 39-206, limits assumed)
T2 construct: also called Mouse
T2 sequence (looked up): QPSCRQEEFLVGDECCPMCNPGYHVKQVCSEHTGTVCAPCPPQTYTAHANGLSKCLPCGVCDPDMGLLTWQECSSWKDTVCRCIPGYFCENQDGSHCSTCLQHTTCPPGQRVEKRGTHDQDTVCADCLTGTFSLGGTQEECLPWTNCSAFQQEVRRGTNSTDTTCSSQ

T3: cynomolgus monkey HVEM (cynomolgus monkey, UniProt A0A2K5W0R1 39-203)
T3 sequence: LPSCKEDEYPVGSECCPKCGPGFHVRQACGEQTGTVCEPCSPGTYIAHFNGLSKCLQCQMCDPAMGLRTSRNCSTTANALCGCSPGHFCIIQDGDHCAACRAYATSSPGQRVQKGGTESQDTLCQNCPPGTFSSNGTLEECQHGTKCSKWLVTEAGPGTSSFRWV

T4: His-tagged human HVEM (human, UniProt Q92956 39-202, limits assumed)
T4 construct: Analyte of the BLI assay, 200 nM in PBS; not shown: His tag
T4 sequence (looked up): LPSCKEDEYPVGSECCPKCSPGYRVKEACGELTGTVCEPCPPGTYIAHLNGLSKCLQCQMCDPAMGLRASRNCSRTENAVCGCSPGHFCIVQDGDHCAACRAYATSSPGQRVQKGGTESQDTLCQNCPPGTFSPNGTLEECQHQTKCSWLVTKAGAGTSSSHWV

T5: Human HEVM recombinant protein (Sino Biological, 10334-H02H) (human, UniProt Q92956 39-202)
T5 construct: construct known only by catalogue number; also called HVEM; human HVEM
T5 sequence (looked up): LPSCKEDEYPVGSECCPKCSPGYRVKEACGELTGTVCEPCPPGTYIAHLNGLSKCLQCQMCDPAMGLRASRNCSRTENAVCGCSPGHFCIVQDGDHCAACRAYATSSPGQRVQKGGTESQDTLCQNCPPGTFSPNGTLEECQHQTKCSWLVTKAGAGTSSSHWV


Assays:
human HVEM = biological target: T1, human HVEM; assay: ELISA
murine HVEM = biological target: T2, murine HVEM; assay: ELISA
cynomolgus monkey HVEM = biological target: T3, cynomolgus monkey HVEM; assay: ELISA
His-tagged human HVEM = biological target: T4, His-tagged human HVEM; assay: BLI OctetRed96, mAb captured, 200 nM His-HVEM
Outline: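 Kinetics (kon, koff, KD) were fitted from association in 200 nM His-HVEM in PBS and dissociation in PBS buffer. The mouse antibodies had been captured directly from culture supernatant onto anti-mouse IgG Fc sensors.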

[1] = biological target: T5, Human HEVM recombinant protein (Sino …); assay: competition ELISA, competitor BTLA-His
Outline: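 Competitor (BTLA-His or LIGHT-His, 400 nM) premixed with 7-point 3-fold antibody dilutions, final top 100 nM or 325 nM respectively, then added 1 Hr at RT to plate-coated HVEM (4 ug/ml). His-tag signal read at 450 nm after HRP/TMB; IC50 derived.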

[2] = biological target: T5, Human HEVM recombinant protein (Sino …); assay: competition ELISA, competitor LIGHT-His
Protocol: The competitive activity of HVEM antibody to BTLA or LIGHT was evaluated with ELISA-based competitive assay. Briefly Human HEVM recombinant protein (Sino Biological, 10334-H02H, 4 ug/ml, 100 ul/well) was coated to ELISA plate (Thermo Scientific, 469949, 4C overnight). A pre-mixture of HVEM antibody clone with seral dilution and 400 nM BTLA-His (R&D systems, 9235-BT-050) or LIGHT-His (SinoBiological, 10386-H07H) recombinant protein was made and added to the ELISA plate after blocking with 3% BSA (200 ul/well, RT 2 Hr) for 1 Hr at RT. The serial dilutions of HVEM antibody clone involve 7 different concentrations, with a 3-fold dilution performed start from 100 nM for BTLA or 325 nM for LIGHT competitive assay. The concentration was the final concentration. Plate was washed with PBST; diluted HRP-anti-His (Biolegend, 652504, 1:1000) with PBS containing 5% FBS was added 100 ul per well for 1 Hr at RT. TMB substrate (KPL, 52-00-00) 100 ul per well after washing and incubate at room temperature for 15 minutes; then stop the development by adding 100 ul stop solution (KPL, 50-85-06). Plate was read at 450 nm. The IC50 was calculated using GraphPad Prism software (GraphPad Software, Inc. San Diego, CA, USA).

Row | Binder | ELISA signal (human HVEM) | ELISA signal (murine HVEM) | ELISA signal (cynomolgus monkey HVEM) | Kd (His-tagged human HVEM) | koff (His-tagged human HVEM) | kon (His-tagged human HVEM) | IC50 [1] | IC50 [2]
1 | Ab_078 (H5S20-45A34A) (antibody, V domains shown, also called Ab_78) VH: EVQLQQSGAELVRSGASVKLSCAASGFNIKDYYMHWVKQRPEQGLEWIGWIDPENGDTEFAPKFQGKATLTADTSSNTAYLQLSSLTSEDTAVYYCNTRTLGYWGQGTLVTVSA VL: QIVLTQSPALMSASPGEKVTMTCTASSSVSYMYWYQQKPRSSPKPWIYLTSNLASGVPARFSGSGSGTSYSLTISSMEAEDAATYYCQQWSSNPLTFGAGTKLELR | 3.08 | 0.046 | 0.063 | 4.95 nM | 0.0023 s⁻¹ | 466000 M⁻¹ s⁻¹ | 1.5 nM | 14.5 nM
2 | Ab_080 (H5S20-27A23A) (antibody, V domains shown, also called Ab_80) VH: EVQLQQSGTVLARPGASVKMSCKASGYSFTSYWMHWLKQRPGQGLEWIGAIYPGNSDTVFNQKFKGKAKLTAVTSATTAYMELSSLTNEDSAVYYCTKEPRTIEGAWFTYWGQGTLVTVSA VL: DIVMTQSPSSLTVPAGEKVTMSCKSSQSLLNSENQKNYLTWYQQKPGQPPKLLIYWASTRESGVPDRFTGSGSGTDFTLTISSVQAEDLAVYYCQSDYSYPLTFGAGTKLELK | 3.07 | 0.048 | 2.26 | 7.09 nM | 0.00115 s⁻¹ | 162000 M⁻¹ s⁻¹ | 1.8 nM | 37.3 nM
3 | Ab_043 (H5S15-29A24A) (antibody, V domains shown, also called Ab_43) VH: EVQLQQSGAELVRPGALVKLSCKASGFNIKDDYMHWVKQRPEQGLEWIGWIDPENGNTIYDPKFQGKASITADTSSNTAYLQLSSLTSEDTAVYYCARGYSSSPYWGQGTLVTVSA VL: DIVLTQSPASLAVSLGQRATISCKASQSVDYDGNSYMNWYQQKPRQPPKLLIYAASNLESGIPARFRGSGSGTDFTLNIHPVEEEDAATYYCQQSNEDPFTFGSGTKLEIK | 3.22 | 0.043 | 0.058 | 3.92 nM | 0.00148 s⁻¹ | 378000 M⁻¹ s⁻¹ | 1.1 nM | 15.3 nM
